Assay results: publication PMC7256200, “Identifying a Molecular Mechanism That Imparts Species-Specific Toxicity to YoeB Toxins” (Frontiers in Microbiology, 2020)

Biological target: the molecule itself
Experiment: SEC-MALS

B1: AtYoeB toxin (Atu2017) from Agrobacterium tumefaciens, GST-His tag removed (natural protein)
chain: MKLVWTLSSWDDYEFWQRTDARMVEKINDLIRNAKRTPFAGLGKPEPLKGDMAGYWSRRITAEHRFVYRVSGSGSEQRLEVIQCRFHYQ
notes: source: E. coli BL21 (DE3), purified (NiNTA, HRV3c PreScission cleavage, Superdex 75); not shown: GST, C-terminal, cleaved
- stoichiometry N: 2
